According to doi:10.1101/2021.02.16.431366, “Functional basis for calmodulation of the TRPV5 calcium channel” (bioRxiv, 2021):
Each block holds one binder with its values, some of them ahead of it. Where no end group is shown, it is not given here.

Experiments:
CaM agarose resin = target: T1, CaM agarose resin (UniProt P62157 1-149); assay: pull-down; competition: 0-100 µM TRPV5 peptide added to the CaM agarose pull-down of GFP-TRPV5 lysate; TRPV5 band semi-quantified and fitted (non-linear sigmoidal) against log peptide concentration; Ca2+ concentration not stated; details: both partners purified
T1 construct: calmodulin coupled to agarose; Immobilised on agarose by the supplier; source: bought: Sigma Aldrich (CaM agarose resin)

[1] = target: the molecule itself; assay: single molecule photobleaching counting (smPB, TIRF microscopy); living HEK293 cells with low expression; bleaching steps of confined spots at the cell surface counted and fitted to a binomial distribution (eGFP folding probability 72%); CaM-eGFP counted in spots positive for mCherry-TRPV5, in presence and absence of extracellular Ca2+

IC50 (CaM agarose resin): 5.2 µM
B1: TRPV5 distal helix peptide (peptide)
peptide: {Biotin‑C6}-QSSNSHRGWEILRRNTLGHL
notes: TRPV5 distal C-terminal helix; the limits are counted from W702, the residue changed in the printed W702A peptide; also called distal peptide; distal TRPV5 peptide; source: synthetic peptide, bought: EMC microcollections GmbH

B2: GFP-TRPV5 (natural protein, rabbit, UniProt Q9XSM3 1-730, looked up)
chain: MGACPPKAKGPWAQLQKLLISWPVGEQDWEQYRDRVNMLQQERIRDSPLLQAAKENDLRLLKILLLNQSCDFQQRGAVGETALHVAALYDNLEAATLLMEAAPELAKEPALCEPFVGQTALHIAVMNQNLNLVRALLARGASVSARATGAAFRRSPHNLIYYGEHPLSFAACVGSEEIVRLLIEHGADIRAQDSLGNTVLHILILQPNKTFACQMYNLLLSYDEHSDHLQSLELVPNHQGLTPFKLAGVEGNTVMFQHLMQKRKHVQWTCGPLTSTLYDLTEIDSWGEELSFLELVVSSKKREARQILEQTPVKELVSFKWKKYGRPYFCVLASLYILYMICFTTCCIYRPLKLRDDNRTDPRDITILQQKLLQEAYVTHQDNIRLVGELVTVTGAVIILLLEIPDIFRVGASRYFGQTILGGPFHVIIITYASLVLLTMVMRLTNMNGEVVPLSFALVLGWCSVMYFARGFQMLGPFTIMIQKMIFGDLMRFCWLMAVVILGFASAFHITFQTEDPNNLGEFSDYPTALFSTFELFLTIIDGPANYSVDLPFMYCITYAAFAIIATLLMLNLFIAMMGDTHWRVAQERDELWRAQVVATTVMLERKMPRFLWPRSGICGYEYGLGDRWFLRVENHHDQNPLRVLRYVEAFKCSDKEDGQEQLSEKRPSTVESGMLSRASVAFQTPSLSRTTSQSSNSHRGWEILRRNTLGHLNLGLDLGEGDGEEVYHF
notes: TRPV5, rabbit, cloned into a pcDNA5 vector with an N-terminal GFP tag; also called eGFP-TRPV5; source: HEK293, transfected, in lysate; in living cells for single molecule photobleaching; not shown: GFP, N-terminal, kept
stoichiometry N [1]: 4
